# Results: patent US20220280659A1, “Targeted Nanoparticles of Well-Defined and Reproducible Sizes” (STAMS DIAGNOSTICS GMBH, priority 2019, published 2022)
# Experiment: Zeta Potential (surface charge) by electrophoretic mobility / PCS, PSS NICOMP 380 DLS/ZLS
# Assay type: physicochemical
# Settings: FIG. 5; pH 7
# Description: The surface charge (also referred to as Zeta potential) of the nanoparticles was determined by measuring their electrophoretic mobility using a PSS NICOMP™ 380 DLS/ZLS. Measurements were made at particle concentrations of 6 to 15 mg/ml, temperatures between room temperature to 50° C., and applying an external voltage of 5 Volts.
# The surface charge (also referred to as Zeta potential or ζ-potential) may be measured using Zeta Sizer as e.g. PSS NICOMP™ 380 DLS/ZLS. Zeta Charge, or Net Surface Charge of a molecule or a particle is measured by PCS in the presence of an applied electrical field.
substance,measurement,value
human serum albumin [cleaned and stabilized albumin molecules],"global surface charge, PCS based measurement of the Zeta Potential",about −5 mV
